Measured values: PMC10173608
Values joined by “and” are separate entries in the source; they are usually repeats but may differ in a detail not shown here. Equal values may be shown once.

Target: GFP-tagged TDP-43-ΔNLS-KQ (GFP-TDP43-ΔNLS-K145Q, pTX066) (human) (UniProt Q13148)
Assay: non-reducing SDS-PAGE and immunoblot of immunoprecipitated aggregates

- stoichiometry N: 2 and 4
Substance: GFP-tagged TDP-43-ΔNLS-KQ (GFP-TDP43-ΔNLS-K145Q, pTX066) (from UniProt Q13148 1-414) (natural protein)
